This data set concerns the molecule itself. In words: SEC-MALS; Superdex 200 10/300 GL, 150 mM NaCl, 20 mM Tris–HCl pH 8.0, 3 mM DTT; 100 µl of EsaAex_2 at 4 mg/ml loaded, 0.5 ml/min.

B1: EsaAex_2 (extracellular domain of EsaA, amino acids 275–689) (domain or fragment)
chain: MSQKDSVELDNYINALKQMDSQIDQQSSMQDTGKEEYKQTVKENLDKLREIIQSQESPFSKGMIEDYRKQLTESLQDELANNKDLQDALNSIKMNNAQFAENLEKQLHDDIVKEPDTDTTFIYNMSKQDFIAAGLNEGEANKYEAIVKEAKRYKNEYNLKKPLAEHINLTDYDNQVAQDTSSLINDGVKVQRTETIKSNDINQLTVATDPHFNFEGDIKINGKKYDIKDQSVQLDTSNKEYKVEVNGVAKLKKDAEKDFLKDKTMHLQLLFGQANRQDEPNDKKATSVVDVTLNHNLDGRLSKDALSQQLSALSRFDAHYKMYTDTKGREDKPFDNKRLIDMMVDQVINDMESFKDDKVAVLHQIDSMEENSDKLIDDILNNKKNTTKNKEDISKLIDQLENVKKTFAEEPQEPK
notes: EsaA, membrane component of the type VIIb secretion system, S. aureus USA300, amino acids 275–689 of the 1009-residue protein; The His tag was cleaved with TEV protease; also called purified extracellular domain; source: E. coli BL21 Star, purified (HisTrap, TEV cleavage, Ni-NTA flowthrough, SEC); not shown: His6, N-terminal, cleaved
A word on the stoichiometry N: it is a count of units in the complex or per binding partner. For the protein B1, the “stoichiometry N” value came to 2.
